This note sets out measurements from patent publication US20200317768A1 (published 2020).

Experiment [1] addresses T1, human FcγRIIb extracellular domain, C-terminal His-tag (human, UniProt P31994 43-217).
T1 construct: also called FcgRIIb; not shown: His-tag added to the C-terminus
T1 sequence: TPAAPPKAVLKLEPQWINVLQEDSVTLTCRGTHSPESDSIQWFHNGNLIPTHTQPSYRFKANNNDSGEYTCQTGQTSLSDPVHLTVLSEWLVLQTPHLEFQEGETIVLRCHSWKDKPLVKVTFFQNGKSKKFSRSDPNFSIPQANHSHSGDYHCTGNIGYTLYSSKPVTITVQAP
As to the kind of experiment: SPR; KD of SG1 divided by KD of variant.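 Also: relative to parent M103205H795-SG1 carrying the SG1 human heavy chain constant region.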 The procedure:
(§1) The kinetic analysis of interactions between these antibodies and FcγR was carried out using BIACORE® T200 or BIACORE® 4000 (GE Healthcare). HBS-EP+ (GE Healthcare) was used as the running buffer, and the measurement temperature was set to 25° C. A chip produced by immobilizing Protein A. Protein A/G or mouse anti-human IgG kappa light chain (BD Biosciences) onto a Series S Sensor Chip CM4 or CM5 (GE Healthcare) by the amine-coupling method was used. […] After the measurement, the antibody captured on the chip was washed off by allowing reaction with 10 mM glycine-HCl, pH1.5 and 25 mM NaOH so that the chip was regenerated and used repeatedly. The sensorgrams obtained as measurement results were analyzed by the 1:1 Langmuir binding model using the BIACORE® Evaluation Software to calculate the binding rate constant ka (L/mol/s) and dissociation rate constant kd (l/s), and the dissociation constant KD (mol/L) was calculated from these values. […] Regarding such interactions, KD values were calculated using the following 1:1 binding model described in BIACORE® T100 Software Handbook BR1006-48 Edition AE.
(Surface plasmon resonance follows binding to a sensor surface in real time, without labels.)

For experiment [2], the target named is T2, cynomolgus monkey FcγRIIa1 extracellular domain, C-terminal His-tag (cynomolgus monkey).
T2 construct: also called cyno FcγRIIa1; FcgRIIa1; not shown: His-tag added to the C-terminus
T2 chain: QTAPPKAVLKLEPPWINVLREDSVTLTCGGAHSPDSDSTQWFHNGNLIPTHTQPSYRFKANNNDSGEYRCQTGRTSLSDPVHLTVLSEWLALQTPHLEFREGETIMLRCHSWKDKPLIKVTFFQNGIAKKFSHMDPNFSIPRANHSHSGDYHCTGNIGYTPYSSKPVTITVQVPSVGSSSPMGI
In words: SPR (BIACORE), antibody captured, soluble FcgR as analyte, 25C. The procedure:
as §1
(§2) The behavior of interacting molecules according to the 1:1 binding model on BIACORE® can be described by Equation 1: Req=C·R max/(KD+C)+RI, wherein, Req is a plot of steady-state binding levels to analyte concentration. C is concentration, RI is bulk refractive index contribution in the sample, and Rmax is analyte binding capacity of the surface. When this equation is rearranged, KD can be expressed as Equation 2: KD=C·Rmax/(Req−RI)−C. KD can be calculated by substituting the values of Rmax, RI, and C into Equation 1 or Equation 2. From the current measurement conditions, RI=0, C=2 μmol/L can be used.

Experiment [3] concerns the target T3, cynomolgus monkey FcγRIIa2 extracellular domain, C-terminal His-tag (cynomolgus monkey).
T3 construct: also called cyno FcγRIIa2; FcgRIIa2; not shown: His-tag added to the C-terminus
T3 chain: T2 chain with P95T, T121A, I127K, A128S, K130N, D135N, R142Q
The experiment is described as above. As to the method: as §1, §2

Experiment [4] concerns the target T4, cynomolgus monkey FcγRIIb extracellular domain, C-terminal His-tag (cynomolgus monkey).
T4 construct: also called cyno FcγRIIb; cynoFcγRIIb; not shown: His-tag added to the C-terminus
T4 chain: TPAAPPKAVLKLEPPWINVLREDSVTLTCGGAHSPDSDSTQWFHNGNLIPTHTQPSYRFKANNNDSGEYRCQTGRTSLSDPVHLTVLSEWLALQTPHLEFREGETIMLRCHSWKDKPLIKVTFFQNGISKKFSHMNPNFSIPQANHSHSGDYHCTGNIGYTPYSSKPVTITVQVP
Described as above. As to the method: as §1, §2

The target of experiment [5] is T5, cynomolgus monkey FcγRIIIaS extracellular domain, C-terminal His-tag (cynomolgus monkey, UniProt A3RFZ7 21-206 (rhesus entry)).
T5 construct: also called cyno FcγRIIIaS; FcgRIIIaS; not shown: His-tag added to the C-terminus
T5 sequence (A3RFZ7 21-206): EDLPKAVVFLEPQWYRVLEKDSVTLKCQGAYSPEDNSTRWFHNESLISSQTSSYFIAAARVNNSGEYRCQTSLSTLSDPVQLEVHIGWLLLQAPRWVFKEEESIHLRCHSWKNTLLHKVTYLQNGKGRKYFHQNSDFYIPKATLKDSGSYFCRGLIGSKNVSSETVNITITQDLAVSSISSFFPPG
The experiment is described as above. As to the method: as §1, §2

Experiment [6] deals with T6, human FcγRIIaH extracellular domain, C-terminal His-tag (human, UniProt P12318 34-217).
T6 construct: also called human FcγRIIa (type H); FcgRIIaH; not shown: His-tag added to the C-terminus
T6 sequence: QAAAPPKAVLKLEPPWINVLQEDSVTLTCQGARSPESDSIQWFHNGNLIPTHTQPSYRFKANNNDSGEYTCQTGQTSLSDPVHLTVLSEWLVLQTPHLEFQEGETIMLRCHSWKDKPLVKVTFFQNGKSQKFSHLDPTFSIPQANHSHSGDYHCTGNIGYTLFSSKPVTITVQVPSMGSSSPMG
Described as above. As to the method: as §1, §2

Experiment [7] concerns the target T7, human FcγRIIaR extracellular domain, C-terminal His-tag (human, UniProt P12318 34-217).
T7 construct: also called human FcγRIIa (type R); FcgRIIaR; not shown: His-tag added to the C-terminus
T7 chain: T6 sequence with H134R
The experiment is described as above. The procedure: as §1, §2

The target of experiment [8] is T1, human FcγRIIb extracellular domain, …. The description is as above. The procedure: as §1, §2
The target in experiment [9] is T8, human FcγRIIIaV extracellular domain, C-terminal His-tag (human, UniProt P08637 17-208).
T8 construct: also called FcgRIIIaV; not shown: His-tag added to the C-terminus
T8 sequence (P08637 17-208 F176V): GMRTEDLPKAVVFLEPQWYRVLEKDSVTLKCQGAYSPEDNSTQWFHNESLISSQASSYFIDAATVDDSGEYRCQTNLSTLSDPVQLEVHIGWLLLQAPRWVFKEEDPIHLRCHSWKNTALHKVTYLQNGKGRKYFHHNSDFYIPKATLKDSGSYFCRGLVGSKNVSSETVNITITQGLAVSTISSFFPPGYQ
The description is as above. The procedure: as §1, §2

Residue numbers refer to the chain shown, from its start. Numbers in names are those of the source.

For orientation: Kd means the constant that tells how readily two partners part at equilibrium.

B1: MS1032LO06-SG1 (M103205H795-SG1/M103202L889-SK1) (antibody, human IgG1, kappa)
heavy: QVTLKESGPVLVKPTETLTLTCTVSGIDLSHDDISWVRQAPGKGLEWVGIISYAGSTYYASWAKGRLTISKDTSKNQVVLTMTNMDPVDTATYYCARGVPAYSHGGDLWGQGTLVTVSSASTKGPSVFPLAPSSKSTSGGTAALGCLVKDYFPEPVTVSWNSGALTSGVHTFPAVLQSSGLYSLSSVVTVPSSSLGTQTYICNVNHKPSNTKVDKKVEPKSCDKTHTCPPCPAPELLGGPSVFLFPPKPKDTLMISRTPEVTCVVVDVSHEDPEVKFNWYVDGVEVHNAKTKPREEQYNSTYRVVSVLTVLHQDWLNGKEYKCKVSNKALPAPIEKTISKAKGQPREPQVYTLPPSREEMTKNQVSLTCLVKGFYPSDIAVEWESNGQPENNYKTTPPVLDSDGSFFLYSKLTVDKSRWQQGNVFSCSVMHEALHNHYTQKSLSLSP
light: DIVMTQSPATLSLSPGERATLSCTSSQSVYHANWLSWFQQKPGQPPKLLIYWASTLAYGVPSRFSGSGSGTDFTLTISSLQPEDAATYYCAGGYGGGRYAFGQGTKVEIKRTVAAPSVFIFPPSDEQLKSGTASVVCLLNNFYPREAKVQWKVDNALQSGNSQESVTEQDSKDSTYSLSSTLTLSKADYEKHKVYACEVTHQGLSSPVTKSFNRGEC
notes: Anti-latent myostatin antibody
Take B1: in experiment [1], the “KD fold (SG1 = 1)” value turned out to be 1 fold. Besides, the Kd in [2] is 4800 nM; in experiment [3] it was 4700 nM; in experiment [4], 1900 nM; in [5], 280 nM; in experiment [6], 890 nM; in [7] it was 1000 nM. In addition, the results for the Kd in experiment [8] and in experiment [9] were 4700 nM and 620 nM, respectively.

B2: MS1032LO06-MY352 (M103205H795-MY352/M103202L889-SK1) (antibody, human IgG1, kappa, name in EU numbering)
heavy: QVTLKESGPVLVKPTETLTLTCTVSGIDLSHDDISWVRQAPGKGLEWVGIISYAGSTYYASWAKGRLTISKDTSKNQVVLTMTNMDPVDTATYYCARGVPAYSHGGDLWGQGTLVTVSSASTKGPSVFPLAPSSKSTSGGTAALGCLVKDYFPEPVTVSWNSGALTSGVHTFPAVLQSSGLYSLSSVVTVPSSSLGTQTYICNVNHKPSNTKVDKKVEPKSCDKTHTCPPCPAPELLNGPSVFLFPPKPKDTLMISRTPEVTCVVVDVSDEDPEVKFNWYVDGVEVHNAKTKPREEQYNSTYRVVSVLTVLHRDWLNGKEYKCKVSNKALPKPIEKTISKAKGQPREPQVYTLPPSREEMTKNQVSLTCLVKGFYPSDIAVEWESNGQPENNYKTTPPVLDSDGSFFLYSKLTVRKSRWQQGNVFSCSVMHEALHNHYTQKSLSLSP
light: B1 light
notes: Printed substitutions: G236N/H268D/Q311R/A330K/D413R (EU numbering); also called MS103205H795-MY352
Take B2: in experiment [1], the “KD fold (SG1 = 1)” value came to 4.6 fold. For the same molecule, the Kd in experiment [2] stood at 1700 nM; in experiment [3], 1300 nM; in [4], 420 nM; in [5] it was 4000 nM; in [6], 1200 nM; in experiment [7] it was 1600 nM. Also, the Kd in [8] was 1000 nM; in experiment [9], 11000 nM.

B3: MS1032LO06-PK56 (M103205H795-PK56/M103202L889-SK1) (antibody, human IgG1, kappa)
heavy: B2 heavy with P345R
light: B1 light
notes: CH PK56 = SG1 with G236N/H268D/Q311R/A330K/P343R/D413R (EU numbering); also called MS103205H795-PK56
As to B3, the “KD fold (SG1 = 1)” value in experiment [1] came to 4.7 fold. The dissociation constant Kd in experiment [2] came out at 1800 nM; in experiment [3] it was 1500 nM; in [4], 500 nM; in [5] it was 4400 nM; in experiment [6] it was 1200 nM; in [7] it was 1900 nM. Moreover, the Kd in experiment [8] came to 1000 nM; in experiment [9], 10000 nM.

B4: MS1032LO06-PK57 (M103205H795-PK57/M103202L889-SK1) (antibody, human IgG1, kappa)
heavy: B2 heavy with N386R
light: B1 light
notes: CH PK57 = SG1 with G236N/H268D/Q311R/A330K/N384R/D413R (EU numbering); also called MS103205H795-PK57
As to B4, the “KD fold (SG1 = 1)” value in experiment [1] turned out to be 4.1 fold. The Kd in experiment [2] is 1900 nM; in experiment [3], 1700 nM; in experiment [4], 520 nM; in experiment [5], 4300 nM; in experiment [6], 1300 nM; in [7], 2200 nM. For the same molecule, the Kd in experiment [8] was determined as 1200 nM; in experiment [9], 23000 nM.

B5: MS1032LO06-MY201 (M103205H795-MY201/M103202L889-SK1) (antibody, human IgG1, kappa)
heavy: B2 heavy with R313Q, R415D
light: B1 light
notes: CH MY201 = SG1 with G236N/H268D/A330K (EU numbering); also called MS103205H795-MY201
As for B5, the “KD fold (SG1 = 1)” value in [1] came to 5.6 fold. For the same molecule, the dissociation constant Kd in experiment [2] was determined as 1500 nM; in experiment [3], 1200 nM; in experiment [4], 330 nM; in experiment [5], 3700 nM; in experiment [6], 980 nM; in experiment [7], 1200 nM. Also, the Kd in experiment [8] amounted to 850 nM; in experiment [9], 37000 nM.

B6: MS1032LO06-MY351 (M103205H795-MY351/M103202L889-SK1) (antibody, human IgG1, kappa)
heavy: B2 heavy with R415K
light: B1 light
notes: CH MY351 = SG1 with G236N/H268D/Q311R/A330K/D413K (EU numbering); also called MS103205H795-MY351
Consider B6, for which the “KD fold (SG1 = 1)” value in [1] is 4.9 fold. For the same molecule, the Kd in experiment [2] was 1600 nM; in experiment [3] it was 1300 nM; in experiment [4], 380 nM; in experiment [5], 4100 nM; in experiment [6], 1200 nM; in [7] it was 1600 nM. The Kd worked out at 970 nM in experiment [8] and 7400 nM in experiment [9].

B7: MS1032LO06-PK55 (M103205H795-PK55/M103202L889-SK1) (antibody, human IgG1, kappa)
heavy: B2 heavy with P345R, R415D
light: B1 light
notes: CH PK55 = SG1 with G236N/H268D/Q311R/A330K/P343R (EU numbering); also called MS103205H795-PK55
Consider B7, for which the “KD fold (SG1 = 1)” value in experiment [1] came out at 6.3 fold. Moreover, the Kd in experiment [2] stood at 1400 nM; in experiment [3] it was 1200 nM; in experiment [4] it was 360 nM; in experiment [5] it was 3300 nM; in [6], 830 nM; in experiment [7], 1500 nM. Also, the results for the Kd in [8] and in [9] were 760 nM and 13000 nM, respectively.
